According to patent publication US20220204583A1:

Biological target: recombinant transferrin receptor ectodomain (UniProt Q62351)
Experiment: competition: 8D3 pre-incubated with 2 µM soluble rTfR ectodomain, then binding to live bEnd.3 cells at 4° C., IRDye detection

Chain of recombinant transferrin receptor ectodomain (Q62351 89-763 limits assumed): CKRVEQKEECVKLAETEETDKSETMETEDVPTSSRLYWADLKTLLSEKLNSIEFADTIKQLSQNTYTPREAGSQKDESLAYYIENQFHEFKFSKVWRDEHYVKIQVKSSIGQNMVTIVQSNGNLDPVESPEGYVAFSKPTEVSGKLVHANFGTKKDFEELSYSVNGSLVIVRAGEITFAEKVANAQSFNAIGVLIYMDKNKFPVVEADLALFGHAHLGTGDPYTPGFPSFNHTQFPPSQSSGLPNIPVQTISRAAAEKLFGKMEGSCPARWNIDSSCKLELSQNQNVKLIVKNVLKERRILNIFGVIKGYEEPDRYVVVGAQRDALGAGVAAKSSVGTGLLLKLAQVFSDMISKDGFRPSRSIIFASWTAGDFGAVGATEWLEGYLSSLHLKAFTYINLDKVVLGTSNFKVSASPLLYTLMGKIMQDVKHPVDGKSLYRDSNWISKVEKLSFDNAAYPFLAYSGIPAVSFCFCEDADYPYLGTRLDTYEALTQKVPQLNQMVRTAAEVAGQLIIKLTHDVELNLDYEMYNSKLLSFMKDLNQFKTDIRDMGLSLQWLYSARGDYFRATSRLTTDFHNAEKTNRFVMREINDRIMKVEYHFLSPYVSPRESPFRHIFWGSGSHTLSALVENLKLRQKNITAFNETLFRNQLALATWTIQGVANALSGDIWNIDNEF

B1: anti-transferrin receptor antibody (8D3) (antibody, from another filing, V domains shown)
VH: EVQLVESGGGLVQPGNSLTLSCVASGFTFSNYGMHWIRQAPKKGLEWIAMIYYDSSKMNYADTVKGRFTISRDNSKNTLYLEMNSLRSEDTAMYYCAVPTSHYVVDVWGQGVSVTVSS
VL: DIQMTQSPASLSASLEEIVTITCQASQDIGNWLAWYQQKPGKSPQLLIYGATSLADGVPSRFSGSRSGTQFSLKISRVQVEDIGIYYCLQAYNTPWTFGGGTKLELK
Binder B1 has an MBEC binding signal with rTfR competition, percent of the non-competition signal of 20%.
